The series concerns the target U1A-Myc-His (UniProt P09012 1-102). In words: competition.

Results on one molecule are retold here after PMC2879510.

Chain of U1A-Myc-His (P09012 1-102): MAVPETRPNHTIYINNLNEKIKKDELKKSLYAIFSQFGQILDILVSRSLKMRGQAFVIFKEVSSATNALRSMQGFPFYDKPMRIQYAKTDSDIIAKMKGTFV

With GGCAUAUCCAGUGCACCAGGGUAUGCC (structured_RNA) [hpIIΔDIS (U1 hpII Δ16/18A/10G)], the binding result is listed as “binds”.
